Positions of bridges follow the written chain, without caps; N, C: chain ends. Non-standard residues stand in square brackets, D forms with d. Residues, ends and D or L forms follow the SMILES beside them. Triazole bridges read from a SMILES are 1,4-linked. Lys(N3) = [N-]=[N+]=NCCCC[C@H](N)C(=O)O; Cha = N[C@@H](CC1CCCCC1)C(=O)O; Pra = C#CC[C@H](N)C(=O)O
How the values were obtained:
[1] = target: T1, human ghrelin receptor (GHSR) (Homo sapiens, UniProt Q92847, C146S/C304S); assay: Bimane fluorescence assay on purified ghrelin receptor in nanodiscs; format: biochemical; conditions: for conformational change in the receptor: in presence of JMV1843
T1 construct: integrin α5 fragment (N); polyhistidine tag (C); made in house; host or cells: E. coli BL21(DE3)
Excerpt: Another assay that can be used to analyse conformational changes associated with GPCR activation and/or to identify G protein peptidomimetics that are capable of stabilizing a GPCR in an active conformational state is the bimane fluorescence assay or bimane assay. This assay works through labelling of a cysteine residue in the lower part of the TM6 of a GPCR with a bimane-fluorophore (monobromobimane (MB)). Binding of an agonist to the GPCR causes a conformational change and outward movement of TM6 that places bimane in a more solved-exposed position, which will alter its maximum emission wavelength. In particular, increasing concentrations of agonist result in a concentration-dependent red-shift of the maximum emission wavelength (λmax) of the bimane-fluorophore probe. In the presence of a G protein or an active state stabilizing G protein peptidomimetic λmax may increase further. For example, a bimane labelled ghrelin receptor (such as a cysmin mutant (i.e. mutant with minimal cysteines) of human ghrelin receptor (also referred to herein as growth hormone secretagogue receptor (GHSR) (e.g. the mutant as described in Damian et al. (2021) wherein monobromobimane (MB) fluorescent probe is attached to Cys^255) and ghrelin receptor agonist JMV1843 may be used.
The bimane fluorescence assays on the ghrelin receptor were performed as described in Damian et al. (2021. Nat. Commun. 12:1-15). Briefly, E. coli bacteria (BL21(DE3)) were transformed with a vector encoding the human ghrelin receptor with an integrin α5 fragment at the N-terminus and a polyhistidine tag at the C-terminus. The receptors were then purified and reconstituted into lipidated nanodiscs. The monobromobimane labeling was performed by incubating the receptors, with a unique reactive cysteine at position 255, during 16 h in the dark at 4° C. and in the presence of 0.1 mM tris(2-carboxyethyl)phosphine (TCEO). The reaction was terminated with 5 mM L-cysteine and unreacted monobromobimane was removed using a Zeba™ Spin desalting column.
For the fluorescence assay, the labeled receptor was incubated during 2 h at 20° C. (0.2 μM final concentration), in the absence or presence of the full agonist JMV1843 (20 μM) and in the absence or presence of either the peptidomimetics at varying molar ratios or the purified Gαqβ1γ2 heterotrimer, at a 1:5 receptor-to-G protein molar ratio. Afterwards, the fluorescence experiments were performed on a Horiba Fluoromax-4 TCSP spectrofluorimeter. For each scan, the excitation wavelength (λexc) was set at 380 nm and emission was collected between 440 nm and 520 nm.
The bimane assay is used on GPCRs to detect conformational changes associated with receptor activation. This assay functions through the labelling of a cysteine, which is one of the least frequently occurring amino acids in proteins. Additionally, the majority of the extracellular cysteines form disulfide bonds, which, together with the transmembrane cysteines, are inert to thiol-reactive reagents. Additionally, some of the intracellular cysteines in the C-terminal tail may carry post-translational modifications which reduces the number of reactive cysteines in the receptor (Tian et al. 2017. Chem. Rev. 117:186-245). For GHSR, the remaining reactive cysteine residues C146 (ICL2) and C304 (extracellular end of TM7) were replaced by serines (cysmin mutant, i.e. mutant with minimal cysteines), to allow the monobromobimane (MB) fluorescent probe to be specifically attached to Cys255 in the lower part of TM6 (FIG. 5a) (Damian et al. 2021). In this assay, bimane is chosen because of its small size and sensitivity to the polarity of its environment (Yao et al. 2006. Nat Chem. Biol. 2:417-422). Binding of a ligand to the receptor, causes a conformational change and outward movement of TM6 that places bimane in a more solvent-exposed position, which alters its maximum emission wavelength. […]

[2] = target: T2, full-length human muscarinic 1 receptor with a FLAG tag at the N-terminus (human, UniProt P11229 1-460); assay: cell-based or functional assay
T2 sequence: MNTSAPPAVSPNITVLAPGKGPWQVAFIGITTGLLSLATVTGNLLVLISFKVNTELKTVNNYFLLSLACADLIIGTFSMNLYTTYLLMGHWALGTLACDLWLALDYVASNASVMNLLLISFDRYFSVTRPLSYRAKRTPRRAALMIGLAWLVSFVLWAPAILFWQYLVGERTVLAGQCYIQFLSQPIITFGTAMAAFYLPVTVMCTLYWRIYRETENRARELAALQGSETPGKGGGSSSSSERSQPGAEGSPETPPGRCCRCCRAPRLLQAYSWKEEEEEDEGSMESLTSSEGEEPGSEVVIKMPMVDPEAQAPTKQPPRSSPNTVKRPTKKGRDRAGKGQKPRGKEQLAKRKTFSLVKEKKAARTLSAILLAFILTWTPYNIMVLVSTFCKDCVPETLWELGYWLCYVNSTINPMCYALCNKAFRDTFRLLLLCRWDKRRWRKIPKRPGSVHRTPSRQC

[3] = target: ghrelin receptor overexpressed on HEK293 cells (UniProt Q92847 1-366, limits assumed); assay: cell-based or functional assay
ghrelin receptor overexpressed on HEK293 cells, sequence (Q92847 whole entry): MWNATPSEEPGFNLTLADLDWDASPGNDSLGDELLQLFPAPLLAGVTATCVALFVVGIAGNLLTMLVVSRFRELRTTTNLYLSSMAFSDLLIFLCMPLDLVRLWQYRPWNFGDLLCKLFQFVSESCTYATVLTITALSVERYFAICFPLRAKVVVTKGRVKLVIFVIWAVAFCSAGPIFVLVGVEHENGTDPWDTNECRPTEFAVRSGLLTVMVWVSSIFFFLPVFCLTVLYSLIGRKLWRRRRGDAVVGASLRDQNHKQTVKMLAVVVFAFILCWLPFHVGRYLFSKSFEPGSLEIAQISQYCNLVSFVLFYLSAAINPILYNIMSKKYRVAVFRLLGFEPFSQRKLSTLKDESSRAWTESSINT

T1 sequence (Q92847 whole entry C146S/C304S, the tested form may be a part): as the sequence (Q92847 whole entry) above, with C146S, C304S counted along it

## Gq protein: purified Gαqβ1γ2 heterotrimer used as reference in the bimane assay
[1]; bimane labeled GHSR, in presence of full agonist JMV1843 (20 μM)
  maximum emission wavelength of bimane: ~480.5 nm

## CC[C@H](C)[C@H](NC(=O)[C@@H](NC(=O)[C@H](CC(=O)O)NC(=O)[C@H](CCCCN)NC(=O)[C@@H](NC(=O)[C@H](C)NC(=O)[C@H](C)NC(=O)[C@H](Cc1ccccc1)NC(C)=O)C(C)C)[C@@H](C)O)C(=O)N[C@@H](CC(C)C)C(=O)N[C@@H](CCC(N)=O)C(=O)N[C@@H](CC(C)C)C(=O)N[C@@H](CC(N)=O)C(=O)N[C@@H](CC(C)C)C(=O)N[C@@H](CCCCN)C(=O)N[C@@H](CCC(=O)O)C(=O)N[C@@H](Cc1ccc(O)cc1)C(=O)N[C@@H](CC(N)=O)C(=O)N[C@@H](CC1CCCCC1)C(=O)N[C@H](C(=O)O)C(C)C [SBL-GQ-03] (Ac-FAAVKDTILQLNLKEYN[Cha]V-OH)
[1]; bimane labeled GHSR
  conformational change in the receptor: not able to induce a conformational change

## Ac-FAAVKDTILQLNLKEYNLV-OH [SBL-GQ-01]
[1]; bimane labeled GHSR
  conformational change in the receptor: not able to induce a conformational change

## CC[C@H](C)[C@H](NC(=O)[C@@H]1CCCCn2cc(nn2)C[C@H](NC(=O)[C@H](C)NC(=O)[C@H](Cc2ccccc2)NC(=O)[C@H](CCCCN)NC(=O)[C@H](CCCCN)NC(=O)[C@H](CCCCN)NC(C)=O)C(=O)N[C@@H](C(C)C)C(=O)N[C@@H](CCCCN)C(=O)N[C@@H](CC(=O)O)C(=O)N1)C(=O)N[C@@H](CC(C)C)C(=O)N[C@@H](CCC(N)=O)C(=O)N[C@@H](CC(C)C)C(=O)N[C@@H](CC(N)=O)C(=O)N[C@@H](CC(C)C)C(=O)N[C@@H](CCCCN)C(=O)N[C@@H](CCC(=O)O)C(=O)N[C@@H](Cc1ccc(O)cc1)C(=O)N[C@@H](CC(N)=O)C(=O)N[C@@H](CC(C)C)C(=O)N[C@H](C(=O)O)C(C)C [SBL-GQ-05] (Ac-KKKFA[Pra]VKD[Lys(N3)]ILQLNLKEYNLV-OH; triazole 6-10)
[1]; highest peptide concentrations (GHSR:peptide 1:50, 1:100), with JMV1843, read-out: effect normalized to the maximal effect of the Gq protein
  Emax: ~90%

## CC(C)(N)C(=O)N[C@H](Cc1c[nH]c2ccccc12)C(=O)N[C@H](Cc1c[nH]c2ccccc12)NC=O [JMV1843, reference compound]
[1]; agonist JMV1843 alone, in the absence of the Gq protein
  maximum emission wavelength of bimane: ~476 nm

## Ac-KKKFNDCKDIILQMNLREYNLV-OH [SBL-GQ-08]
[2]
  IC50 (µM) of the agonist acetylcholine chloride for the M1 receptor in the presence of the peptidomimetic, RLA: 413 µM
  Shift (IC50 ratio without/with peptidomimetic), RLA: 2

B1: SBL-GQ-10 (peptide)
peptide: Ac-KKKFNDCKDIILQMNLREYN[Cha]V-OH
SMILES: CC[C@H](C)[C@H](NC(=O)[C@H](CC(=O)O)NC(=O)[C@H](CCCCN)NC(=O)[C@H](CS)NC(=O)[C@H](CC(=O)O)NC(=O)[C@H](CC(N)=O)NC(=O)[C@H](Cc1ccccc1)NC(=O)[C@H](CCCCN)NC(=O)[C@H](CCCCN)NC(=O)[C@H](CCCCN)NC(C)=O)C(=O)N[C@H](C(=O)N[C@@H](CC(C)C)C(=O)N[C@@H](CCC(N)=O)C(=O)N[C@@H](CCSC)C(=O)N[C@@H](CC(N)=O)C(=O)N[C@@H](CC(C)C)C(=O)N[C@@H](CCCNC(=N)N)C(=O)N[C@@H](CCC(=O)O)C(=O)N[C@@H](Cc1ccc(O)cc1)C(=O)N[C@@H](CC(N)=O)C(=O)N[C@@H](CC1CCCCC1)C(=O)N[C@H](C(=O)O)C(C)C)[C@@H](C)CC
[2]
  IC50 (µM) of the agonist acetylcholine chloride for the M1 receptor in the presence of the peptidomimetic, RLA: 409 µM
  Shift (IC50 ratio without/with peptidomimetic), RLA: 2

## Ac-KKKFAAVKDTILQLNLKEYNLV-OH [SBL-GQ-02]
[2]
  IC50 (µM) of the agonist acetylcholine chloride for the M1 receptor in the presence of the peptidomimetic, RLA: 474 µM
  Shift (IC50 ratio without/with peptidomimetic), RLA: 2

## H-RRRRFA[Pra]VKD[Lys(N3)]ILQLNLKEYNLV-OH (triazole 7-11) [SBL-GQ-14]
[3]
  EC50 (M) of the MK0677 agonist, IP-One Gq assay, peptidomimetic at 10 µM, n = 1: 6.96e-10 M
  EC50 (M) of the MK0677 agonist, IP-One Gq assay, peptidomimetic at 10 µM, n = 2: 1.01e-10 M
  EC50 (M) of the MK0677 agonist, IP-One Gq assay, peptidomimetic at 10 µM, n = 3: 1.87e-10 M

## H-KKKFA[Pra]VKD[Lys(N3)]ILQLNLKEYNLV-OH (triazole 6-10) [SBL-GQ-13]
[3]
  EC50 (M) of the MK0677 agonist, IP-One Gq assay, peptidomimetic at 10 µM, n = 1: 4.42e-10 M
  EC50 (M) of the MK0677 agonist, IP-One Gq assay, peptidomimetic at 10 µM, n = 2: 1.01e-10 M
  EC50 (M) of the MK0677 agonist, IP-One Gq assay, peptidomimetic at 10 µM, n = 3: 1.31e-10 M

Reference: patent US20260242759A1, “GQ/11 Protein Peptidomimetics” (Vrije Universiteit Brussel, priority 2022, published 2026)
